Experimental data published in patent publication US20240034774A1 (Gilead, published 2024).
Changes are numbered by the printed parent chain.

Key:
Human FcγRIIB = target: T1, Human FcγRIIB (human, UniProt P31994 46-217); assay: SPR (Biacore 4000), FcγRIIB/C amine coupled to CM4 chip, antibody as analyte, steady-state fit
T1 construct: also called FcγRIIB/C; FcRIIB/C
T1 sequence (looked up): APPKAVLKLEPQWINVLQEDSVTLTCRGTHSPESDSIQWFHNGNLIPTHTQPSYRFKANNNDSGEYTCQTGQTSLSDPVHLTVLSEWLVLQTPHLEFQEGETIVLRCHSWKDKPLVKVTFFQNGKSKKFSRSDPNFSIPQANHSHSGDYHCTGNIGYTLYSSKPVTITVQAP

gp120 Bal = gp120 Bal (HIV-1)
gp120 CAAN = gp120 CAAN (HIV)
gp120 REJO = gp120 REJO (HIV)
Human FcγRI = target: T2, Human FcγRI (human, UniProt P12314 16-288); assay: SPR (Biacore 4000), antibody amine coupled to CM4 chip, FcγRI as analyte (3 and 30 nM), kinetic fit
T2 construct: also called CD64
Protocol: (§1) The in vitro binding dissociation constants (KD) of selected antibodies described herein for human and cynomolgus macaque (cyno) Fc binding receptors (FcγRs, FcRn) were determined using the Biacore 4000 surface plasmon resonace (SPR) biosensor, and either C1 or CM4 sensor chips (GE Healthcare). Biotinylated human FcRn was purchased from Immunitrack. Biotinylated cynomolgus macaque FcRn and human FcγRIIIB-NA1 and FcγRIIIB-NA2 were purchased from Acro Biosystems.
To determine human FcγRI binding affinities, each test antibody was amine coupled to a CM4 sensor chip at two densities (about 100 RU and about 800 RU). Human FcγRI was tested for binding using a two-step titration series (3 nM and 30 nM). Responses were fit to a simple kinetic model.

Cyno FcγRI = target: T3, Cyno FcγRI (cynomolgus macaque, UniProt A0A2K5U901 33-309); assay: SPR (Biacore 4000), antibody amine coupled to CM4 chip, cyno FcγRI as analyte (3 and 30 nM), kinetic fit
T3 construct: also called cynomolgus macaque FcγRI
Protocol: (§2) The in vitro binding dissociation constants (KD) of selected antibodies described herein for human and cynomolgus macaque (cyno) Fc binding receptors (FcγRs, FcRn) were determined using the Biacore 4000 surface plasmon resonace (SPR) biosensor, and either C1 or CM4 sensor chips (GE Healthcare).
(§3) To determine cynomolgus macaque FcγRIIA, FcγRIIB, FcγRIII and FcγRI binding affinities each test antibody was amine coupled to a CM4 sensor chip at two densities (about 100 RU and about 800 RU). Cyno FcγRIIA and FcγRIIB were tested in a two-fold concentration series up to 1 μM. FcγRIII was tested in a two-fold concentration up to 500 nM. Cyno FcγRI was tested for binding using a two-step titration (3 nM and 30 nM). The response data for FcγRIIA, FcγRIIB, FcγRIII at steady-state were fit to a simple binding isotherm. Responses for FcγRI were fit to a simple kinetic model.

Cyno FcγRIIB = target: T4, Cyno FcγRIIB (cynomolgus macaque); assay: SPR (Biacore 4000), antibody amine coupled to CM4 chip, cyno FcγRIIB as analyte, steady-state fit
T4 construct: also called cynomolgus macaque FcγRIIB
Protocol: as §2, §3

Human FcRn [1] = target: T5, Human FcRn (human, UniProt P55899 24-297; P61769 21-119); assay: SPR (Biacore 4000) at pH 7.4, biotinylated FcRn captured on streptavidin C1 chip, antibody as analyte, steady-state fit
T5 construct: also called neonatal Fc-receptor; biotinylated human FcRn
Protocol: as §2
(§4) For human FcRn binding assays, 600 RU of streptavidin was amine coupled to a C1 sensor chip using standard NHS/EDC coupling. The immobilization buffer was PBS+0.005% Tween 20, pH 7.4. Streptavidin was prepared at 50 μg/ml in 10 mM NaAc pH 4.5. Activation, coupling, and blocking steps were run for 10 minutes, each at 10 μl/min. […] Data were collected at pH 6.0 and pH 7.4 in triplicate. The response data at steady-state were fit to a simple binding isotherm.

Human FcRn [2] = target: T5, Human FcRn; assay: SPR (Biacore 4000) at pH 6.0, biotinylated FcRn captured on streptavidin C1 chip, antibody as analyte, steady-state fit
Protocol: as §2, §4

Cyno FcγRIIA = target: T6, Cyno FcγRIIA (cynomolgus macaque); assay: SPR (Biacore 4000), antibody amine coupled to CM4 chip, cyno FcγRIIA as analyte, steady-state fit
T6 construct: also called cynomolgus macaque FcγRIIA
Protocol: as §2, §3

human C1q protein = target: T7, human C1q protein (human, UniProt P02745 23-245; P02746 28-253; P02747 29-245); assay: C1q binding ELISA, antibody coated on plate, titrated human C1q, anti-C1q-HRP detection, n = 3 assays
T7 construct: also called complement protein C1q
Protocol: A dose response binding ELISA was conducted to determine the relative C1q binding affinity of antibodies described herein. To conduct they assay, a 384-well Maxisorp plate was coated with 25 μl of antibody solution at 5 μg/mL in PBS pH 7.4 overnight at 4° C. Plates were then blocked with 75 μL of 1% BSA in PBS for 2 hours and washed 4 times with PBS+0.05% Tween 20 (PBST). Next, 25 μL of a three-fold serial dilution of human C1q protein in PBS+5% BSA was added to the plates. Plates were incubated with shaking at 600 rpm for one hour, washed 4 times with PBST and then 25 μL of anti-C1q-HRP conjugated polyclonal antibody was added in PBS+5% BSA. Plates were incubated with shaking at 600 rpm for 15 minutes, washed 8 times with PBST and then developed using 3,3′,5,5′-Tetramethylbenzidine (TMB) substrate and quenched with HCl.

Cyno FcRn [3] = target: T8, Cyno FcRn (cynomolgus macaque, UniProt Q8SPV9 24-297; Q8SPW0 21-119); assay: SPR (Biacore 4000) at pH 6.0, biotinylated cyno FcRn captured on streptavidin C1 chip, antibody as analyte, steady-state fit
T8 construct: also called cynomolgus macaque FcRn; biotinylated cyno FcRn
Protocol: as §1
(§5) To determine cynomolgus macaque FcRn binding affinities, 600 RU of streptavidin was amine coupled to a C1 sensor chip using standard NHS/EDC coupling. The immobilization buffer was PBS+0.005% Tween 20, pH 7.4. Streptavidin was prepared at 50 μg/ml in 10 mM NaAc pH 4.5. Activation, coupling, and blocking steps were run for 10 minutes, each at 10 μl/min. Biotinylated cyno FcRn was captured to about 20 RU. Antibodies were tested for binding to the FcRn surface using a two-fold concentration series up to 1 μM. Data were collected at pH 6.0 and pH 7.4 in triplicate. The response data at steady-state were fit to a simple binding isotherm.

Human FcγRIIIB-NA1 = target: T9, Human FcγRIIIB-NA1 (human, UniProt O75015 17-200); assay: SPR (Biacore 4000), antibody amine coupled to CM4 chip, FcγRIIIB as analyte, steady-state fit
T9 construct: also called CD16b NA1

Human FcγRIIIB-NA2 = target: T10, Human FcγRIIIB-NA2 (human, UniProt O75015 17-200); assay: as above
T10 construct: also called CD16b NA2

Cyno FcRn [4] = target: T8, Cyno FcRn; assay: SPR (Biacore 4000) at pH 7.4, biotinylated cyno FcRn captured on streptavidin C1 chip, antibody as analyte, steady-state fit
Protocol: as §1, §5

Cyno FcγRIII = target: T11, Cyno FcγRIII (cynomolgus macaque, UniProt Q8SPW2 17-208); assay: SPR (Biacore 4000), antibody amine coupled to CM4 chip, cyno FcγRIII as analyte, steady-state fit
T11 construct: also called cynomolgus macaque FcγRIII
Protocol: as §2, §3

Human FcγRIIA-167R = target: T12, Human FcγRIIA-167R (human, UniProt P12318 36-218); assay: SPR (Biacore 4000), receptor amine coupled to CM4 chip, antibody as analyte, steady-state fit
T12 sequence (looked up): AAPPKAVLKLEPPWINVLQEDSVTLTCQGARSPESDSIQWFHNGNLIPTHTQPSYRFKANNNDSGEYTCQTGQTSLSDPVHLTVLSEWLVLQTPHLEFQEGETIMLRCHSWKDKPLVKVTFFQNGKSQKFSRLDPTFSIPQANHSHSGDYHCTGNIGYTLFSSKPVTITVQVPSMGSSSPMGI

Human FcγRIIIA-176F = Human FcγRIIIA-176F (human, UniProt P08637 17-208); assay: as above
Human FcγRIIA-167H = target: T13, Human FcγRIIA-167H (human, UniProt P12318 36-218); assay: as above
T13 sequence (looked up): T12 sequence (looked up) with R132H

Human FcγRIIIA-176V = target: T14, Human FcγRIIIA-176V (human, UniProt P08637 17-208); assay: as above
T14 construct: also called CD16a 176V

B1: Antibody A (antibody, human IgG1, kappa)
heavy: not shown
light: DIQMTQSPSSLSASVGDTVTITCQANGYLNWYQQRRGKAPKLLIYDGSKLERGVPSRFSGRRWGQEYNLTINNLQPEDIATYFCQVYEFVVPGTRLDLKRTVAAPSVFIFPPSDEQLKSGTASVVCLLNNFYPREAKVQWKVDNALQSGNSQESVTEQDSKDSTYSLSSTLTLSKADYEKHKVYACEVTHQGLSSPVTKSFNRGEC
Human FcγRIIB
  Kd: 11 µM
gp120 Bal
  EC50: 0.05 nM
gp120 CAAN
  EC50: 1.84 nM
gp120 REJO
  EC50: 2.21 nM
Human FcγRI
  Kd: 0.107 nM
Cyno FcγRI
  Kd: 0.038 nM
Cyno FcγRIIB
  Kd: 895 nM
Human FcRn [1]
  Kd: 42 µM
Human FcRn [2]
  Kd: 485 nM
Cyno FcγRIIA
  Kd: 2000 nM
Human C1q protein
  EC50: 2.2 nM
Cyno FcRn [3]
  Kd: 1100 nM
Human FcγRIIIB-NA1
  Kd: 2000 nM
Human FcγRIIIB-NA2
  Kd: 1500 nM
Cyno FcRn [4]
  Kd: 12.8 µM
Cyno FcγRIII
  Kd: 200 nM
Human FcγRIIA-167R
  Kd: 3000 nM
Human FcγRIIIA-176F
  Kd: 2300 nM
Human FcγRIIA-167H
  Kd: 1800 nM
Human FcγRIIIA-176V
  Kd: 670 nM
